# According to the supplement of paper PMC5998384:
# Experiments:
# HeLa Kyoto [1] = test: solubility in G1/S (NP-40 vs SDS abundance) (log2 ratio); higher = more soluble; settings: cell cycle stage: G1/S
# HeLa Kyoto [2] = test: thermal stability score vs G1/S (z-score of summed log2 fold changes over temperatures); higher = more thermally stable than in G1/S
# HeLa Kyoto [3] = test: solubility change mitosis vs G1/S (difference of NP-40 vs SDS log2 ratios) (log2 ratio difference); higher = more soluble in mitosis
# HeLa Kyoto [4] = test: melting temperature (median over replicates), in situ; higher = more thermally stable
# [5] = cell cycle stage: early G1 (4.5 h after nocodazole release)
# 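Throughout, for melting temperature (median over replicates), in situ: HeLa Kyoto cells synchronized by double thymidine or nocodazole block, proteins quantified by TMT10plex mass spectrometry, three independent biological replicates.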
# 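Throughout, for solubility change mitosis vs G1/S (difference of NP-40 vs SDS log2 ratios): synchronized HeLa Kyoto cells (double thymidine block for G1/S, nocodazole release for mitosis), protein amounts in NP-40 versus SDS lysates quantified by mass spectrometry, three biological replicates.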
# 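Throughout, for solubility in G1/S (NP-40 vs SDS abundance): HeLa Kyoto cells arrested at G1/S by double thymidine block, proteins quantified by TMT10plex mass spectrometry in mild NP-40 versus SDS extracts, three biological replicates.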
# 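Throughout, for thermal stability score vs G1/S (z-score of summed log2 fold changes over temperatures): synchronized HeLa Kyoto cells, proteins quantified by TMT10plex mass spectrometry, three biological replicates, mitosis taken 0.5 h after nocodazole release, G1/S directly after double thymidine block.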
Sequence,solubility in G1/S (log2) (HeLa Kyoto [1]),thermal stability score (HeLa Kyoto [2]; [5]),thermal stability score (HeLa Kyoto [2]; cell cycle stage: mitosis),solubility change mitosis (log2) (HeLa Kyoto [3]),melting temperature (HeLa Kyoto [4]; cell cycle stage: G1/S) [°C],melting temperature (HeLa Kyoto [4]; cell cycle stage: mitosis) [°C]
MRMSVGLSLLLPLSGRTFLLLLSVVMAQSHWPSEPSEAVRDWENQLEASMHSVLSDLHEAVPTVVGIPDGTAVVGRSFRVTIPTDLIASSGDIIKVSAAGKEALPSWLHWDSQSHTLEGLPLDTDKGVHYISVSATRLGANGSHIPQTSSVFSIEVYPEDHSELQSVRTASPDPGEVVSSACAADEPVTVLTVILDADLTKMTPKQRIDLLHRMRSFSEVELHNMKLVPVVNNRLFDMSAFMAGPGNAKKVVENGALLSWKLGCSLNQNSVPDIHGVEAPAREGAMSAQLGYPVVGWHIANKKPPLPKRVRRQIHATPTPVTAIGPPTTAIQEPPSRIVPTPTSPAIAPPTETMAPPVRDPVPGKPTVTIRTRGAIIQTPTLGPIQPTRVSEAGTTVPGQIRPTMTIPGYVEPTAVATPPTTTTKKPRVSTPKPATPSTDSTTTTTRRPTKKPRTPRPVPRVTTKVSITRLETASPPTRIRTTTSGVPRGGEPNQRPELKNHIDRVDAWVGTYFEVKIPSDTFYDHEDTTTDKLKLTLKLREQQLVGEKSWVQFNSNSQLMYGLPDSSHVGKHEYFMHATDKGGLSAVDAFEIHVHRRPQGDRAPARFKAKFVGDPALVLNDIHKKIALVKKLAFAFGDRNCSTITLQNITRGSIVVEWTNNTLPLEPCPKEQIAGLSRRIAEDDGKPRPAFSNALEPDFKATSITVTGSGSCRHLQFIPVVPPRRVPSEAPPTEVPDRDPEKSSEDDVYLHTVIPAVVVAAILLIAGIIAMICYRKKRKGKLTLEDQATFIKKGVPIIFADELDDSKPPPSSSMPLILQEEKAPLPPPEYPNQSVPETTPLNQDTMGEYTPLRDEDPNAPPYQPPPPFTAPMEGKGSRPKNMTPYRSPPPYVPP [DAG1],-0.103,-2.43,-3.27,0.19,54.1,54.9
MRPGTGAERGGLMVSEMESHPPSQGPGDGERRLSGSSLCSGSWVSADGFLRRRPSMGHPGMHYAPMGMHPMGQRANMPPVPHGMMPQMMPPMGGPPMGQMPGMMSSVMPGMMMSHMSQASMQPALPPGVNSMDVAAGTASGAKSMWTEHKSPDGRTYYYNTETKQSTWEKPDDLKTPAEQLLSKCPWKEYKSDSGKPYYYNSQTKESRWAKPKELEDLEGYQNTIVAGSLITKSNLHAMIKAEESSKQEECTTTSTAPVPTTEIPTTMSTMAAAEAAAAVVAAAAAAAAAAAAANANASTSASNTVSGTVPVVPEPEVTSIVATVVDNENTVTISTEEQAQLTSTPAIQDQSVEVSSNTGEETSKQETVADFTPKKEEEESQPAKKTYTWNTKEEAKQAFKELLKEKRVPSNASWEQAMKMIINDPRYSALAKLSEKKQAFNAYKVQTEKEEKEEARSKYKEAKESFQRFLENHEKMTSTTRYKKAEQMFGEMEVWNAISERDRLEIYEDVLFFLSKKEKEQAKQLRKRNWEALKNILDNMANVTYSTTWSEAQQYLMDNPTFAEDEELQNMDKEDALICFEEHIRALEKEEEEEKQKSLLRERRRQRKNRESFQIFLDELHEHGQLHSMSSWMELYPTISSDIRFTNMLGQPGSTALDLFKFYVEDLKARYHDEKKIIKDILKDKGFVVEVNTTFEDFVAIISSTKRSTTLDAGNIKLAFNSLLEKAEAREREREKEEARKMKRKESAFKSMLKQAAPPIELDAVWEDIRERFVKEPAFEDITLESERKRIFKDFMHVLEHECQHHHSKNKKHSKKSKKHHRKRSRSRSGSDSDDDDSHSKKKRQRSESRSASEHSSSAESERSYKKSKKHKKKSKKRRHKSDSPESDAEREKDKKEKDRESEKDRTRQRSESKHKSPKKKTGKDSGNWDTSGSELSEGELEKRRRTLLEQLDDDQ [PRPF40A],-1.2,1.36,6.53,0.633,47.1,48.8
MRPLTEEETRVMFEKIAKYIGENLQLLVDRPDGTYCFRLHNDRVYYVSEKIMKLAANISGDKLVSLGTCFGKFTKTHKFRLHVTALDYLAPYAKYKVWIKPGAEQSFLYGNHVLKSGLGRITENTSQYQGVVVYSMADIPLGFGVAAKSTQDCRKVDPMAIVVFHQADIGEYVRHEETLT [NIP7],-1.97,-2,-2.49,0.622,55.5,53.8
MRQKRKGDLSPAELMMLTIGDVIKQLIEAHEQGKDIDLNKVKTKTAAKYGLSAQPRLVDIIAAVPPQYRKVLMPKLKAKPIRTASGIAVVAVMCKPHRCPHISFTGNICVYCPGGPDSDFEYSTQSYTGYEPTSMRAIRARYDPFLQTRHRIEQLKQLGHSVDKVEFIVMGGTFMALPEEYRDYFIRNLHDALSGHTSNNIYEAVKYSERSLTKCIGITIETRPDYCMKRHLSDMLTYGCTRLEIGVQSVYEDVARDTNRGHTVKAVCESFHLAKDSGFKVVAHMMPDLPNVGLERDIEQFTEFFENPAFRPDGLKLYPTLVIRGTGLYELWKSGRYKSYSPSDLVELVARILALVPPWTRVYRVQRDIPMPLVSSGVEHGNLRELALARMKDLGIQCRDVRTREVGIQEIHHKVRPYQVELVRRDYVANGGWETFLSYEDPDQDILIGLLRLRKCSEETFRFELGGGVSIVRELHVYGSVVPVSSRDPTKFQHQGFGMLLMEEAERIAREEHGSGKIAVISGVGTRNYYRKIGYRLQGPYMVKMLK [ELP3],-0.062,0.13,-1.12,-0.0597,51.9,51.4
MRRAALRLCALGKGQLTPGRGLTQGPQNPKKQGIFHIHEVRDKLREIVGASTNWRDHVKAMEERKLLHSFLAKSQDGLPPRRMKDSYIEVLLPLGSEPELREKYLTVQNTVRFGRILEDLDSLGVLICYMHNKIHSAKMSPLSIVTALVDKIDMCKKSLSPEQDIKFSGHVSWVGKTSMEVKMQMFQLHGDEFCPVLDATFVMVARDSENKGPAFVNPLIPESPEEEELFRQGELNKGRRIAFSSTSLLKMAPSAEERTTIHEMFLSTLDPKTISFRSRVLPSNAVWMENSKLKSLEICHPQERNIFNRIFGGFLMRKAYELAWATACSFGGSRPFVVAVDDIMFQKPVEVGSLLFLSSQVCFTQNNYIQVRVHSEVASLQEKQHTTTNVFHFTFMSEKEVPLVFPKTYGESMLYLDGQRHFNSMSGPATLRKDYLVEP [ACOT9],-0.111,-1.25,1.48,-0.0152,52.9,53.7
